The record followed here is the nanobody polyreactivity screen of Harvey et al. (2022).

The data set is described as follows: yeast display, Sf9 membrane polyspecificity reagent, FACS + sequencing; frameworks hold sequencing errors. The procedure, abridged:
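Using colony PCR, genes from sorted yeast display clones were amplified, then sequenced on MiSeq at 2 × 250 and filtered by CDR length. The clones had been stained with 10% biotinylated, detergent-solubilized Sf9 membrane reagent for 1 hour at 4 °C and sorted by FACS into low and high (top ~1%) gates on anti-HA and streptavidin fluorescence. Polyreactivity labels come from the gate of origin.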
With “QVQLVESGGGLVQAGGSLRLSCAASGSTFAHNAMGWYRQAPGKERELVATISGSGGTTRYADSVKGRFTISRDNAKNTVYLQMNSLKPEDTAGYYCAAQSSTPKLYDYWGQGTQVTVSS”, the “polyreactivity (PSR sort gate)” value is “low polyreactivity”.

Take “QVQLVESGGGLVQAGGSLRLSCAASGSTFAHYAMGWYRQAPGKERELVAAITTSGSSTYYADSVKGRFTISRDNAKNTVYLQMNSLKPEDTAVYYCNARGSYYHYRGERNYWGQGTQVTVSS”: the “polyreactivity (PSR sort gate)” value is given as “low polyreactivity”.

“QVQLVESGGGLVQAGGSLRLSCAASGSTFAKNAMGLYRQAPGKERELVAAISRGGNTYYADSVKGRFTISRDNAKNTVYLQMNSLKPEDTAVYYCAKLPYTRNYLGSLYDYWGQCTQVTVSS”: the “polyreactivity (PSR sort gate)” value was “high polyreactivity”.

As to “QVQLVESGGGLVQAGGSLRLSCAASGSTFAKNTMGWYRQAPGKERELVAAISTSGGSTYYADSVKVRFTISRDNAKNTVYLQMNSLKPEDTAVYYCAARAFQYYRAMDYWGQGTQVTVSS”, the “polyreactivity (PSR sort gate)” value was “low polyreactivity”.

For “QVQLVESGGGLVQAGGSLRLSCAASGSTFAKYAMGWYRQAPGKERELVASIRLSGGSTYYADSVKGRFTISRDNAKNTVYLQMNSLKPEDTALYYCHKQFATFFYGFDYYYWGQGTQVTVSS”, the “polyreactivity (PSR sort gate)” value is “low polyreactivity”.

Consider “QVQLVESGGGLVQAGGSLRLSCAASGSTFAKYTMGWYRQAPGKERELVAAISQRGGSTYYADSVKGRFTISRDNAKNTVYLQMNSLKPEDTAVYYCNVRAYAWRYEYWGQGTQVTVSS”, for which the “polyreactivity (PSR sort gate)” value is reported as “high polyreactivity”.

In the case of “QVQLVESGGGLVQAGGSLRLSCAASGSTFALYAMGGSRPAPGKERELVAVINSGGSTYYADSVKGRFTISRDNAKNTVYLLMNSLKPEDTAVSYCATVYVWAYRGTDSSYRFDYWGKGTQVTVSS”, the “polyreactivity (PSR sort gate)” value is “low polyreactivity”.

In the case of “QVQLVESGGGLVQAGGSLRLSCAASGSTFALYAMGWSRPAPGKERELVAAITWSGTGTYYADSVKGRFTISRDNAKNTVYLQMNSLKPEDTAVYYCNAEYWWWGLGNDYWGQGTQVTVSS”, the “polyreactivity (PSR sort gate)” value was “low polyreactivity”.

For the sequence “QVQLVESGGGLVQAGGSLRLSCAASGSTFALYGMGWYRQAPGKERELVAAINSGVSTNYADSVKGRFTISRDNAKNTVYLQMNSLKPEDTAVYYCNADYYIAPYDSWGQGTQVTVSS”, the “polyreactivity (PSR sort gate)” value was “low polyreactivity”.

Consider “QVQLVESGGGLVQAGGSLRLSCAASGSTFAPYAMGWYRQAPGKERELVASISWRGGRTYYADSVKGRFTISRDNAKNTVYLQMNSLKPEDTAVYYCATSRYRVDRWGPPYRYDYWGQGTQVTVSS”, for which the “polyreactivity (PSR sort gate)” value is “high polyreactivity”.

Take “QVQLVESGGGLVQAGGSLRLSCAASGSTFARNAMGWYRPAPGKERELVAAITNAGDTNYADSVKGRFTISRDNAKNTVYLQMNSLKPEDTAVYYCAADTRFYSGRGTVSGDYWGQGTQVTVSS”: the “polyreactivity (PSR sort gate)” value is reported as “low polyreactivity”.

For the sequence “QVQLVESGGGLVQAGGSLRLSCAASGSTFARNAMGWYRQAHGKERELVAAITNAGDTNYADSVKGRFTISRDNAKNTVYLQMNSLKPVDTAVYYCAADPILIDEYWGQGTQVTVSS”, the “polyreactivity (PSR sort gate)” value was “low polyreactivity”.

As for “QVQLVESGGGLVQAGGSLRLSCAASGSTFARNAMGWYRQAPGKERELVAAISSSGGRTYYADSVKGRFTISRDNAKNTVYLQMNSLKPEDTAVYSCAARTFGSVHSYRGGYWGQGTQVTVSS”, the “polyreactivity (PSR sort gate)” value is listed as “high polyreactivity”.

Regarding “QVQLVESGGGLVQAGGSLRLSCAASGSTFARNAMGWYRQAPGKERELVAAITNAGDTNYADSVKGRFTISRDNAKNTVYLQMNSLKPEDTAVYYCAAEPILIDEYWGQGTQVTVSS”, the “polyreactivity (PSR sort gate)” value was “low polyreactivity”.

With “QVQLVESGGGLVQAGGSLRLSCAASGSTFARYAMGWYRQAPGKERELVAAISGGGGSTYYADSVKGRFTISRDNAKNTVYLQMNSLKPEDTAVYYCAKLLARGNRYDSWGQGTQVTVSS”, the “polyreactivity (PSR sort gate)” value is on record as “high polyreactivity”.

Turning to “QVQLVESGGGLVQAGGSLRLSCAASGSTFARYAMGWYRQAPGKERELVAAISRRGGSTYYADSVKGRFTISRDNAKNTVYLQMNSLKPEDTAVYYCAARYGIISSFEYDYWGQGTQVTVSS”, the “polyreactivity (PSR sort gate)” value is “high polyreactivity”.

For the sequence “QVQLVESGGGLVQAGGSLRLSCAASGSTFARYAMGWYRQAPGKERELVAAISRSGSNTYYADSVKGRFTISRDNAKNTVYLQMNSLKPEDTAVYYCAAVQPGQRTVAYDYWGQGTLVTVSS”, the “polyreactivity (PSR sort gate)” value is reported as “high polyreactivity”.

For the sequence “QVQLVESGGGLVQAGGSLRLSCAASGSTFASNAMGWYRQAPGKERELVAAISKRGGSTYYADSVKGRFTISRDNAKNTVYLQMNSLKPEDTSVYYCNADWTRSQYDYWGQGTQVTVSS”, the “polyreactivity (PSR sort gate)” value was “high polyreactivity”.

Turning to “QVQLVESGGGLVQAGGSLRLSCAASGSTFATNTMGWYRQAPGKERELVAAITSGGSTYYADSVKGRFTISRDNAKNTVYLQMNSLKPEDTAVYYCAVRGVYYYHRAFDYWGQGTQVTVSS”, the “polyreactivity (PSR sort gate)” value is recorded as “high polyreactivity”.

Consider “QVQLVESGGGLVQAGGSLRLSCAASGSTFATYTMGWYRQAPGKERELVAAISSRGGSTYYADSVKGRFTISRDNAKNTGYLQMNSLKPEDTAVYYCNARRSTDPARYYWGQGSQVTVSS”, for which the “polyreactivity (PSR sort gate)” value is listed as “high polyreactivity”.

As to “QVQLVESGGGLVQAGGSLRLSCAASGSTFATYTMGWYRQAPGKERELVATISRSGTTTYYADSVKGRFTISRDNAKYTVYLQMNSLKPEDTAVYYCNTLRAYWTYHFYGAVRDGYDYWGQGTQVTVST”, the “polyreactivity (PSR sort gate)” value is listed as “low polyreactivity”.

On to “QVQLVESGGGLVQAGGSLRLSCAASGSTFAVNAMRSYRQAPGKEREFVAAISFGTGSTYYADSVKGRFTISRDNAKKTVYLQMNSLKPEDTAVYYCNAEASGYYWWWGYDYWGQGTQVTVSS”, for which the “polyreactivity (PSR sort gate)” value is recorded as “low polyreactivity”.

Consider “QVQLVESGGGLVQAGGSLRLSCAASGSTFAWYAMGWYRQAPGKERELVAAISRTGRTYYADSVKGRFTISRDNAKNTVYLQMNSLKPEDTAVYYCAARIERFYRDQRYDYWGQGTQVTVSS”, for which the “polyreactivity (PSR sort gate)” value is “high polyreactivity”.

Consider “QVQLVESGGGLVQAGGSLRLSCAASGSTFAYNAMGWYRQAPGKERELVAAISWGDGITYYADSVKGRFTISRDNAKNTVYLQMNSLKPEDTAVITRDFGYWGQGTQVTVSS”, for which the “polyreactivity (PSR sort gate)” value is “low polyreactivity”.

As for “QVQLVESGGGLVQAGGSLRLSCAASGSTFAYNAMGWYRQAPGKERELVASISWTGGSTYYADSVKGRFTISRDNAKNTVYLQMNSLKPEDTAVYYCAVDWLEGYEFDSWGQGTQVTVSS”, the “polyreactivity (PSR sort gate)” value is on record as “low polyreactivity”.

“QVQLVESGGGLVQAGGSLRLSCAASGSTFAYYAMGWYRQAPGKERELVAAIDDTGSTNYADSVKGRFTISRDNAKYTVFLQMNSLKPEYTAVYYCNAQPDGTYDYWGQGTQVTVSS”: the “polyreactivity (PSR sort gate)” value is reported as “low polyreactivity”.

Consider “QVQLVESGGGLVQAGGSLRLSCAASGSTFAYYTMGWYRQAPGKERELVAAISKSGGSTTYADSVKGRFTISRDNAKNTVYLQMNSLKPEDTAVYYCAAYDRVENYNYWGQGTQVTVSS”, for which the “polyreactivity (PSR sort gate)” value is given as “high polyreactivity”.

“QVQLVESGGGLVQAGGSLRLSCAASGSTFCFYAMGWYRQSPGKERELVATITIGGRTYADSVKGRFTISRDNAKNTLYLQMNSLKPEDTAVYYCNARNHVQVLFRRDYWVQGTQVTVSS”: the “polyreactivity (PSR sort gate)” value is “low polyreactivity”.

With “QVQLVESGGGLVQAGGSLRLSCAASGSTFCINAMGWYRQAPGKERDLVAAISSRGGSTYYADSVKGRFTISRDNAKNTVYLQMNSLKPEDTAVYYCAAEFAVSFYWSWLGQDYNYWGQGTQVTVSS”, the “polyreactivity (PSR sort gate)” value was “high polyreactivity”.

As to “QVQLVESGGGLVQAGGSLRLSCAASGSTFDAYAMGWSRQAPGKERELVAAMTNAGSTNYADSVKGRFTISRDNAKNTVYLQMNSLKPEDTAVYYCATDWYHRYLDGRYDYLGQGTQVTVSS”, the “polyreactivity (PSR sort gate)” value is “low polyreactivity”.

“QVQLVESGGGLVQAGGSLRLSCAASGSTFDAYAMGWYRQAPGKEWELVAAISTRGGRTDYADSVKGRFTISRDNAKNTVYLQMNSRKPEDTAVYYCTAVGARVNVRGTPAFDSWGQGTQVTVSS”: the “polyreactivity (PSR sort gate)” value is listed as “high polyreactivity”.

Take “QVQLVESGGGLVQAGGSLRLSCAASGSTFDDNAMGWYRQAPGKERELVAAITYRGTRTYYADSVKGRFTISRDNAKNTVYLQMNSLKPEDTAVYYCAADSESVGYEYWGQGTQVTVSS”: the “polyreactivity (PSR sort gate)” value is “high polyreactivity”.

Turning to “QVQLVESGGGLVQAGGSLRLSCAASGSTFDDYAMGWYRQAPGKEREFVAAITYGGGNTYYADSVKGRFTISRDNAKNTVYLQMNSLKPEDTAVYYCNKLSRGFSPKYGYWGQGTQVTVSS”, the “polyreactivity (PSR sort gate)” value is “high polyreactivity”.

On to “QVQLVESGGGLVQAGGSLRLSCAASGSTFDFYAMGWYRQAPGKERELVARISSGGGRTYYADSVKGRFTISRDNAKNTVYLQMNSLKPEDTAVYYCATDYPWIFGHFLMDYWGQGTQVTVSS”, for which the “polyreactivity (PSR sort gate)” value is “low polyreactivity”.

With “QVQLVESGGGLVQAGGSLRLSCAASGSTFDGNAMGWYRQAPGKERELVAAISSSGGSTYYADSVKGRFTISRDNAKNTVYLQMNSLKPEDTAVYYCAAGGWSTLLSWFYRRYDYWGQGTQVTVSS”, the “polyreactivity (PSR sort gate)” value is reported as “high polyreactivity”.

For the sequence “QVQLVESGGGLVQAGGSLRLSCAASGSTFDGNAMGWYRQAPGKERELVAAITSGGSTNYADSVKGRFTISRDNAKNTVYLQMNSLKPEDTAVYYCAADTVSFSILYDYWGQGTQVTVSS”, the “polyreactivity (PSR sort gate)” value is given as “low polyreactivity”.

On to “QVQLVESGGGLVQAGGSLRLSCAASGSTFDGNAMGWYRQAPGKERELVAGISYRGGSTYYADSVKGRFTISRDNAKNTVYLQMNSLKPEDTAVYYCAADDYGYWLFDYWGQGTQVTVSS”, for which the “polyreactivity (PSR sort gate)” value is on record as “low polyreactivity”.

Take “QVQLVESGGGLVQAGGSLRLSCAASGSTFDGNAMGWYRQAPGKERELVASITQRASNTYYADSVKGRFTISRDNAKNTVDLQMNSLKPEDTAVYYCARQWYWRPVYYIGQGYEYWGQGTQVTVSS”: the “polyreactivity (PSR sort gate)” value is given as “low polyreactivity”.

For “QVQLVESGGGLVQAGGSLRLSCAASGSTFDGNAMGWYRQAPGTERELVAAITSGGSTNYADSVKGRFTISRDNAKNTVYLQMNSLKPEDTAVYYCAADTVSFSILYDYWGQGTQVTVSS”, the “polyreactivity (PSR sort gate)” value is recorded as “low polyreactivity”.

“QVQLVESGGGLVQAGGSLRLSCAASGSTFDGYAMGWYRQAPGKERELVAAITSSSTSTYYADSVKGRFTISRDNAKNTVYLQMYSLKPEDTAVYYCAAQYFSYISVYSFYTMGYWGQGTQVTVSS”: the “polyreactivity (PSR sort gate)” value is “low polyreactivity”.

“QVQLVESGGGLVQAGGSLRLSCAASGSTFDHYAMGWYRPAPGKERELVAAISYSGSTTDYADSVKGRFTISRDNAKNTVYLQMNSLKPVDTAVYYFAASGDVIQSPMDYWGQGTQVTVSS”: the “polyreactivity (PSR sort gate)” value was “low polyreactivity”.
